T1: recombinant human CLL1 extracellular domain, His-tagged (CLL1-His protein) (human, UniProt Q5QGZ9 65-265)
T1 construct: ECD made by transient expression in HEK293 (293-F) cells and purified by IMAC; also called recombinant human CLL1 protein; ECD of CLL1; not shown: His tag (protein called CLL1-His, purified by IMAC)
T1 sequence: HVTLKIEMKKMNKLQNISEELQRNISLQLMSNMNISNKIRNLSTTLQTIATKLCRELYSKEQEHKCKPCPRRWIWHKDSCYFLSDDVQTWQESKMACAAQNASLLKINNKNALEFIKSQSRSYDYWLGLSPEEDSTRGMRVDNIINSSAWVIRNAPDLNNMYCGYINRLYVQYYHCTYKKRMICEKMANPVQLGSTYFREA

B1: AS138943 (antibody, V domains shown)
VH: AVQLVESGGGLVQPGGSLRLSCTASGFNFGLYAMSWVRQAPGKGLEWVSGINGGGGLTYYPDSMKGRFTISRDVAKNTLYLELNSLKIEDTAMYYCAKDPDMWTAFPNALDAWGQGTLVTVSS
VL: SYELTQPSAVSVSLGETARITCQGGNIGINYANWYQQKPGQAPVLVIYGDDRRPSGIPERFSGSISGGTATLTISGAQAEDEADYYCQSADSSPYVVFGGGTHLTVL
notes: Called 'IgG1', from a camel phage library, expressed in IPTG-induced supernatant with a C-terminal His-tag; also called anti-CLL1 IgG1
B2: AS138993 (antibody, V domains shown)
VH: QVQLQESGGDLVQPGGSLRLSCAASGFTFSSYDMTWVRQAPGKGLEWVSTINSGGGVTYYTDSVKGRFTISRDNAKNTLYLQMNSLKPEDTAMYYCAADLSWYHALDAWGQGTLVTVSS
VL: SSELTQPAAVSVSLGETARITCQGGNFGSYYASWYQQKPGQAPVLVIHANDNRPSGIPERFSGSSSGGTVTLTISGAQAEDEADYYCQSYDSSANAVVFGGGTHLTVL
notes: as for B1
B3: AS141567 (antibody, V domains shown)
VH: QVQLVQSGGGLVQPGGSLRLSCAASGFTFSSYAMSWVRQAPGKGLEWVSAINSGDSSTYYVDSVKGRFTISRDNAKNTLYLQLNSLKTEDTAMYYCAKDRIPGPYSDGGGFLGIVFGYWGQGTQVTISS
VL: SSELTQPSAVSVSLGQTARITCQGGNFGKYYAHWYQQKPGQAPVLVIYEDSERPSGIPERFSGSSSGDTATLTISGAQAEDEGDYYCHSAESSAAVFGGGTHLTVL
notes: as for B1
B4: AS141522 (antibody, V domains shown)
VH: QVQLVQSGGGLVQPGGSLRLSCAASGFTFGDYIMIWVRQAPGKGLEWVSAINSGGDSTYYADSVKGRFTISRDNAKNTLYLQLNSLKTQDTAIYYCAKDREAYYGSFYGGSGFDYWGQGTQVTISS
VL: SSELTQPSAVSVSLGETARITCQGGNVGSSYASWYQQKPGQAPVLVIYEDSERPSGIPERFSGSSSGGTATLTISRAQAEDEADYYCQSADRSGYNAVFGGGTHLTVL
notes: as for B1
B5: AS141641 (antibody, V domains shown)
VH: AVQLVESGGGLVQPGGSLRLSCAASGFTFSGYPMSWVRQAPGKALEWVSTINNGGGSTYYADSVKGRFTISRDNAKNTLYLQLNSLKTEDTAMYYCAKRHIPSSYCSDGYCYAAGEDYGMDYWGKGTLVTISS
VL: SSELTQPSAVSVSLGETARITCQGGNVGSSYASWYQQKPGQAPVLVIYEDSERPSGIPERFSGSSSGGTATLTISGAQAEDEADYYCQSADSSGYNAVFGGGTHLTVL
notes: as for B1
B6: AS141297 (antibody, V domains shown)
VH: QVQLVQSGGGLVQPGGSLRLSCAASGFTFSSYGMIWVRQAPGKGLEWVSAANSGGGTTYYADSVKGRFTISRDNAKNTLYLQLNSLKTEDTAMYYCVKDLYIDGGTWSGLGLYLEVWGQGTLVTVSS
VL: SYELTQPSAVSVSLGETARITCQGGDFGTYYASWYQQKPGQAPVLVIYEDSERPSGIPERFSGSSSGGTATLTISGAQAEDEADYYCQSADSSVNVVFGGGTHLTVL
notes: as for B1
B7: AS141553 (antibody, V domains shown)
VH: QVQLVESGGGLVQPGGSLRLSCAASGFTFSSVDMTWVRQAPGKGLEWVSTINTGSGSTYYADSVKGRFTISRDNAKNTLYLQMNSLKTEDTAVYYCATDLAGGGAWFTAPFHYWGQGTQVTISS
VL: SYELTQPSAVSVSLGETARITCQGGNVGYYYASWYQQKPGQAPVLVIYEDSERPSGIPERFSGSSSGGTATLTISGAQAEDEADYYCQSADSSGYNAAVFGGGTHLTVL
notes: as for B1
B8: AS141701 (antibody, V domains shown)
VH: QVQLVQSGGGLVQPGGSLRLSCAASGFTFSVYAMSWVRQAPGKGLEWVSAIKAANSDGDNTYYVDSVKGRFTISRDNAKNTLYLQLNSLKTEDTAIYYCAKAMYECSSGSWCPLGDALDAWGQGTLVTVSS
VL: SSELTQPSAVSVSLGETARITCQGGNVRSSYVSWYQQKPGQAPVLVIYEDSERPSGIPERFSGSSSGGTATLTISGAQAEDEADYYCQSGDNSAYSAAVFGGGTHLTVL
notes: as for B1
B9: AS138658 (antibody, V domains shown)
VH: QVQLVQSGGSLRLSCAASGFTFSSYDMSWVRQAPGKGLEWVSTINSGGETTYYRDSVKGRFTISRDNAKNTLYLQLNSLKTEDTAMYYCAKGGGWEYYGMDYWGKGTLVTISS
VL: SYELTQPSAVSVSLGQTARITCQGGNLGSSYAYWYQQKPGQAPVLVIYADDSRPSGIPERFSGSSSGGTATLTISGAQAEDEADYYCQSYDSSSYDIVFGGGTHLTVL
notes: as for B1
B10: AS141286 (antibody, V domains shown)
VH: QVQLVQSGGGLVQPGGSLRLSCAASRFPDGSYYMSWVRQGPGKGLEWVSSIYTGGDSTYYADSVKGRFTISKDNAKNALYLQMNSLKPEDTAVYYCAADPGGRYGPHEYNYWGQGTQVTVSS
VL: SSELTQPSAVSVSLGETARITCQGGNIGSNYANWYQQKPGQAPVLVIYGDDSRPSGIPERFSGSSSGGTATLTISGAQAEDEADYYCQSADSSGYNAVFGGGTHLTVL
notes: as for B1
B11: AS141819 (antibody, V domains shown)
VH: EVQLVQSGGGLVQPGGSLRLSCATSGFTFSNNWMHWVRQAPGKGLEWVSSINTGDGSTSSADSVKGRFTISRDNTKNILYLQMNSLKSEDTALYYCAKELDYELGKGPHEYNYWGQGTQVTVSS
VL: SYELTQPSAVSVSLGETARITCQGGNIGSNYANWYQQKPDQAPVLVIYGDDSRPSGIPERFSGSSSGGTATLTISGAQAEDETDYYCQSADSSGYKAVFGGGTHLTVL
notes: as for B1
B12: AS138628 (antibody, V domains shown)
VH: QVQLVQSGGGLVQPGGSLRLSCASSGFTFSSYTMSWVRQAPGKGLEWVSGFNSYGSTYYADSVKGRFTISRDNAKNTLYLQLNSLKTEDTAMYYCARGLVDFDYWGQGTQVTVSS
VL: QSVLTQPSSVSGTPGQTVTISCTGTSNDVGGYNYVSWYQQLPGTAPKLLIYQVNKRASGIPDRFSGSKSGNTASMTISGLQSADEADYYCASYRSTGNAVFGGGTHLTVL
notes: as for B1
B13: AS141330 (antibody, V domains shown)
VH: QVKLEQPGGSLRLSCAASGFTFSDYDMTWVRQAPGKGLEWISTITGGGESTYYRDSVKGRATISRDNAKNTLYLQLNSLKTEDTAMYYCARGGGWEYYGMNYWGKGTLVTISS
VL: SSELTQPSAVSVSLGETARITCQGGKVGSNYASWYQQKPGQAPVLVIYGDDSRPSGIPERFSGSSSGGTATLTISGAQAEDEADYYCQSYDSSGYNAVFGGGTHLTVL
notes: as for B1

The binders below were run against T1, recombinant human CLL1 extracellular … (assay: SPR (BIACORE T200), IgG1 on recombinant human CLL1; column KD, unit inferred).
Method: (§1) The unique clones were grown in 2YT medium and induced by IPTG for IgG1 expression in the supernatant. The supernatants of unique binders were analyzed for their ability to bind to a CLL1-expressing HEK293/huCLL1 cell line and cancer cell line AMLL193 using a FACS assay. Affinities of selected binders in supernatants to recombinant human and cynomolgus monkey CLL1 proteins were determined by surface plasmon resonance (SPR) on a BIACORE® T200 instrument. The dissociation phase was used to calculate the kd values for each IgG1.

With B1 as the binder, how does the Kd read?
Its Kd is 39 nM.

For B2, which Kd is on record?
Its Kd is 13 nM.

How did the Kd turn out when B3 was run?
Its Kd is 2.3 nM.

Which Kd does the source give for B4 here?
The Kd was 0.37 nM.

How did the Kd turn out when B5 was run?
The Kd was 0.28 nM.

With B6 as the binder, how does the Kd read?
Its Kd is 0.54 nM.

Which Kd does the source give for B7 here?
Its Kd is 3.5 nM.

How did the Kd turn out when B8 was run?
Its Kd is 2.8 nM.

How did the Kd turn out when B9 was run?
The Kd was 21 nM.

With B10 as the binder, how does the Kd read?
The Kd was 1.2 nM.

With B11 as the binder, how does the Kd read?
The Kd was 11 nM.

How did the Kd turn out when B12 was run?
The Kd was 43 nM.

What follows are binders tested against T1, recombinant human CLL1 extracellular … (assay: SPR (BIACORE T200), supernatants on recombinant human CLL1).
Method: as §1

Does B13 bind?
Result: binds

From patent publication US20250082681A1 (NANJING LEGEND BIOTECH, published 2025)
